Here are results for three molecules from patent publication US20260242834A1, “ENZYMES, POLYNUCLEOTIDES ENCODING SAME, AND METHODS OF USING SAME FOR PRODUCING MESCALINE” (YEDA RESEARCH AND DEVELOPMENT CO. LTD., priority 2023, published 2026).

The target of data set [1] is 5-HT2A serotonin receptor (Homo sapiens, UniProt P28223). Conditions: 5-HT2A serotonin receptor agonist, cited from earlier work.
Data set [2] is described as follows: OMT in vitro assays with lysates from transformed E. coli in the presence of SAM. The format is biochemical, Lophophora williamsii (Peyote). As to conditions: substrates 3, 6 or 9.
Data set [3] relates to N. benthamiana leaves. Nature of the data set: Transient expression in N. benthamiana leaves by agroinfiltration. As to conditions: tyramine 4 to dopamine 3 and 3-MeO-tyramine 7 to 3,4-diOH-5-MeO-phenethylamine 6. The format is cell-based, Nicotiana benthamiana. An excerpt: TyDC2, CYP1-12, PPO1, MT1-4, OMT1,5,10,11 and the previously characterized BvCYP76AD6 were amplified and cloned in pAlpha2-NPT II-Ubq10-CCD-Ter10 vector digested with BsaI using ClonExpress II One Step Cloning kit (Vazyme). For BvCYP76AD6 the inventors used stocks of previously transformed bacteria containing the specific gene (Polturak et al., 2016; New Phyol.). All plasmids were sequenced and transformed into Agrobacterium tumefaciens strain GV3101 by electroporation. A. tumefaciens harboring the overexpression constructs were grown overnight at 28° C. in Luria-Bertani (LB) medium in the presence of kanamycin and gentamycin. Bacterial cells were collected by centrifugation, washed, and resuspended in infiltration buffer (10 mM MES, 2 mM MgCl2, 2 mM Na3PO4, 0.5% glucose and 100 mM acetosyringone) to OD600=0.8. Individual and/or equal volumes of A. tumefaciens suspension with different expression vectors were combined to obtain the desired gene combinations and incubated for 2 h at room temperature. The solutions were infiltrated into 4- or 5-week-old N. benthamiana leaves from the abaxial side using a 1-ml needleless syringe. […] Leaf samples were flash frozen and extracted as previously described with 300 μl ice-cold methanol with 0.1% formic acid and analyzed via LC-MS. […]

Data set [4] deals with 3-MeO-tyramine 7. Put plainly: Heterologous expression in yeast supplemented with 3-MeO-tyramine 7. In kind it is cell-based, S. cerevisiae. Conditions: two days from galactose induction; compared with LwCYP84A220.

Chain of 5-HT2A serotonin receptor (P28223 whole entry): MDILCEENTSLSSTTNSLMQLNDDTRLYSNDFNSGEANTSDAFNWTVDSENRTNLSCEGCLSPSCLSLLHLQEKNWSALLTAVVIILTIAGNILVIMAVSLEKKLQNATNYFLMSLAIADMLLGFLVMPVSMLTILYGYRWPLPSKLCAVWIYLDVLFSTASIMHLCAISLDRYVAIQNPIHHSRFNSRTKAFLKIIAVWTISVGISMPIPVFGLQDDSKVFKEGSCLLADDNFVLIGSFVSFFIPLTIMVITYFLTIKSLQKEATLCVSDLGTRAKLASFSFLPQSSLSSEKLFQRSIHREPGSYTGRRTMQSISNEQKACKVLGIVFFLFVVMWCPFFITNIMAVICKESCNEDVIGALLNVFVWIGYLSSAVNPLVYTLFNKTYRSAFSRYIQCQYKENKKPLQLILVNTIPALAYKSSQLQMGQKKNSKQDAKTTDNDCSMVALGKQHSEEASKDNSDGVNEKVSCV

Turning to `COc1cc(CCN)cc(OC)c1OC` [Mescaline], the “times less potent effects than LSD” value in data set [1] (compared with LSD) is given as 1,000-3,000 times. Further, the “times less potent than psilocybin” value in data set [1] (compared with psilocybin) is 30 times.

B1: OMT5: Peyote O-methyltransferase (protein, listed as Lophophora williamsii)
chain: MGSASGSAERTQMGEDEACSFAMTITSGSVPPMVLKAVIELDVLEIIKRAGPGAHLSPAEIAAQLPTTNPGAAAMLDRMLRLLASYDVLSYSLHTLPDGRVERLYGLAPVCQFLTNNEDGVTLSALSLMNQDKVLMESWYHLKDAVLDGGIPFNKAYGMTAFEYHGTDPRFNKVFNNGMSNHSTITMKKLLENYKGFEGVSTLVDVGGGTGATLNMIISKHPTIKGINFDLPHVIEDAPTYPGVEHIGGDMFVSVPKGDAIFMKWICHDWSDEHCLKFLKNCYAALADHGKVIVCEYILPVAPETNHAARTVFHVDAIMLAHNPGGKERTEQEFESLAKGAGFEGFRVACSAYDTKVMEFLKNN
Turning to B1, the O-methylation regioselectivity entry in data set [2] is reported as “O-methylated the two meta hydroxyl groups”.

B2: LwCYP12: Peyote CYP76AD-subfamily cytochrome P450 hydroxylase (protein, listed as Lophophora williamsii)
chain: MGYYAIFAVVLPFLWTCFYLLKLNPTSKLTSTIRLPPGPRPLPIIGNLHQLGERPHRTLANLAKVYGPIISLKFGSITTIAVSSADVAKEMFQKHDLALASRKVPAAVRANGHDNFSVAWLPVTPKWRFLRKISAIQLFSTQRLDARQSLRQAKVVELLDYIKARSNAGEPVDIGEAAFTTSLNLLSNTFFSMDLASYSSAASGEFKELVWKIMEEIGKPNLADCFPLVGFISRMSVNRELMGYGNKLNEVFAEIIEKRLSAANSSEGRGNGDVLDTLLRIMEEDDSELSLDDIMHLLMDFFTAGTDTTSSTLEWAMTELLHNPEKMAKAQAELEQVLGKDTVSIQESDIAKLLYLQATVKETLRMHPPTVFLLPRKADSDIDLYGHLVPKNAQVFVNLWAISYDPSTWENPDLFSPERFLDQDIDMKGQDFGFIPFGAGRRICPGLTLAYRMLNLMLGTLIHVFNWKLGDGLSREDLDMTDKFGITIQKAKPLRAIPILK
On to B2, for which, in data set [3], the “hydroxylation activity in planta” value is given as “regioselectively catalyzes the two meta hydroxylations”. The “catalytic activity for the production of 3,4-diOH-5-MeO-phenethylamine 6” value in data set [4] is listed as “superior catalytic activity”.
